Marks after values point to notes of the source that are not given here.
Tests used:
[1] = test system: patients with moderate to severe chronic plaque psoriasis; experiment: PASI response and PGA, 120-week open-label extension study; assay type: in vivo, human; conditions: Week 120; 40 mg eow; as observed
Source text: Exclusion criteria included prior TNF-antagonist therapy.

[2] = test system: patients with moderate to severe chronic plaque psoriasis; conditions: in vivo
Source text: The study was a multi-center, 16-week, randomized controlled Phase III trial. The main inclusion criteria included: • Clinical diagnosis of psoriasis for ≧1 year • Affected body surface area (BSA)≧10% • Psoriasis Area and Severity Index (PASI)≧10 The main exclusion criteria was previous use of MTX or systemic anti-TNF therapy.

[3] = test system: adult patients with moderate to severe chronic plaque psoriasis; experiment: Adverse events, REVEAL 52-week Phase III trial
[4] = Adalimumab Treatment Group (540.5 PY)
[5] = Adalimumab Treatment Group, 52 weeks (540.5 PYs)
[6] = Period A, adalimumab-treated patients

Adalimumab: a human anti-TNF mAb, described in U.S. Pat. No. 6,090,382 as D2E7 (HUMIRA, Abbott Laboratories)
PASI 90 response, % Patients [1]: 53.1%
PASI 100 response, % Patients [1]: 28.6%
Any infectious AE [2]: 51 (48) n (%)
Any infectious SAE [2]: 0 (0) n (%)
lymphomas ([3]; 52-week study): no lymphomas were diagnosed
opportunistic infection ([3]; 52-week study): One case of oral candidiasis
tuberculosis ([3]; 52-week study, patient PPD+ve at baseline, non-compliant with INH prophylaxis): one case of presumptive tuberculosis
Allergic Reaction, rate [3, 4]: 0.002 Event/PY
Congestive Heart Failure, rate [3, 4]: 0.002 Event/PY
Demyelinating Disorder, rate [3, 4]: 0 Event/PY
Injection Site Reaction, rate [3, 4]: 0.017 Event/PY
Lupus-like Syndrome, rate [3, 4]: 0 Event/PY
Lymphoma, rate [3, 4]: 0 Event/PY
Malignancies, excluding NMSC + lymphoma, rate [3, 4]: 0.004 Event/PY
Non-melanoma skin cancers, rate [3, 4]: 0.013 Event/PY
Tuberculosis (TB), rate [3, 4]: 0.002 Event/PY
AEs leading to withdrawal, rate [3, 5]: 0.078 Event/PY
Any AE, rate [3, 5]: 3.991 Event/PY
Serious AEs, rate [3, 5]: 0.061 Event/PY
Allergic Reaction, rate ([3]; Period A (250.2 PY)): 0.004 Event/PY
Congestive Heart Failure, rate ([3]; Period A (250.2 PY)): 0.004 Event/PY
Demyelinating Disorder, rate ([3]; Period A (250.2 PY)): 0 Event/PY
Injection Site Reaction, rate ([3]; Period A (250.2 PY)): 0.276 Event/PY
Lupus-like Syndrome, rate ([3]; Period A (250.2 PY)): 0 Event/PY
Lymphoma, rate ([3]; Period A (250.2 PY)): 0 Event/PY
Malignancies, excluding NMSC + lymphoma, rate ([3]; Period A (250.2 PY)): 0.008 Event/PY
Non-melanoma skin cancers, rate ([3]; Period A (250.2 PY)): 0.016 Event/PY
Tuberculosis (TB), rate ([3]; Period A (250.2 PY)): 0 Event/PY
AEs leading to withdrawal, rate ([3]; Period A (250.2 PYs)): 0.072 Event/PY
Any AE, rate ([3]; Period A (250.2 PYs)): 4.616 Event/PY
Serious AEs, rate ([3]; Period A (250.2 PYs)): 0.068 Event/PY
AEs leading to withdrawal, percentage ([3]; Period A (N = 814)): 1.7%
Allergic Reaction, percentage ([3]; Period A (N = 814)): 1%
Any AE, percentage ([3]; Period A (N = 814)): 62.2‡ %
Congestive Heart Failure, percentage ([3]; Period A (N = 814)): 1%
Demyelinating Disorder, percentage ([3]; Period A (N = 814)): 0%
Injection Site Reaction, percentage ([3]; Period A (N = 814)): 6.9%
Lupus-like Syndrome, percentage ([3]; Period A (N = 814)): 0%
Lymphoma, percentage ([3]; Period A (N = 814)): 0%
Malignancies, excluding NMSC + lymphoma, percentage ([3]; Period A (N = 814)): 0.2%
Non-melanoma skin cancers, percentage ([3]; Period A (N = 814)): 0.5%
Opportunistic Infections, excluding TB, percentage ([3]; Period A (N = 814)): 0%
Serious AEs, percentage ([3]; Period A (N = 814)): 1.8%
Serious Infectious AEs, percentage ([3]; Period A (N = 814)): 0.6%
Severe Infectious AEs, percentage ([3]; Period A (N = 814)): 0.7%
Tuberculosis (TB), percentage ([3]; Period A (N = 814)): 0%
Nasopharyngitis ([3]; Period A (N = 814), common AE ≧5%): 45 (5.3) n (%)
patients with serious AEs ([3]; Period A (weeks 0-16)): 1.8%
Nasopharyngitis [3, 6]: 5.3%
Sinusitis [3, 6]: 2.7%
upper respiratory tract infections [3, 6]: 7.2%

From patent US9605064B2, “Methods and compositions for treatment of skin disorders” (AbbVie Biotechnology Ltd, priority 2006, dated 2017)
